This is an account of results in patent publication US7169889B1, “Insulin prodrugs hydrolyzable in vivo to yield peglylated insulin” (priority 1999, dated 2007).

Where two headings read alike, the source gives them in different places.

The subject of one series is pancreatectomized dogs. In words: Oral activity in pancreatectomized diabetic dogs (plasma glucose and insulin). The class given is in vivo. The settings on record: for Dmax: microemulsion, N = 2. The procedure: Two dogs were used for each compound. Compounds are formulated in water in oil microemulsion and evaluated at a dose of 1-2 mg/kg. Twenty milliliters of the formulation was administered orally to each dog and the formulations were chased with 20 ml of water. Plasma glucose and insulin levels were monitored at different time intervals.

In series [1] the test system is male CF-1 mice. To be noted: bovine insulin standard; assumed potency used for calculations; cited from earlier work.
In series [2] the test system is male CF-1 mice. In words: Mouse blood glucose assay (potency evaluation). The class given is in vivo. The settings on record: for Potency: subcutaneous injection, blood glucose 30 minutes post-dose, calculated relative to bovine insulin standard curve. As for the experimental part: Six paired dose groups of 5 male CF-1 mice (˜25 g unfasted) received subcutaneous injections of either bovine insulin or modified insulin. Pre- and post-experimental baselines were established with two vehicle groups. An additional 25 μg/kg insulin dose group served as the internal control. Mice were terminally bled 30 minutes post-dose and blood glucose was measured with a glucometer (ONE TOUCH®). The biological potency of the modified insulin was then calculated relative to a bovine insulin standard curve.

Turning to Galactosamine-PEG14-insulin conjugate, in the series on pancreatectomized dogs (oral, dose 2 mg/kg), the Dmax is 52%.

For “Bovine insulin: bovine insulin standard, assumed potency 27.5 IU/mg”, the Potency in the series on male CF-1 mice [1] was 27.5 IU/mg.

Turning to “PEG3-oleate-insulin conjugate: insulin conjugated with hydrolyzable triethylene glycol oleate oligomer, in microemulsion”, the Dmax in the series on pancreatectomized dogs (oral, dose 1 mg/kg) came to 49%.

With “Insulin PEG9 Hexanoate: insulin mono-conjugated with hydrolyzable PEG9 hexanoate ester oligomer”, in the series on male CF-1 mice [2], the Potency is reported as 21.3 IU/mg.

In the series with pancreatectomized dogs (dog, in vivo, po, 2 mg/kg), “PEG3-insulin: methyl triethylene glycol insulin conjugates formulated in microemulsion” registered a Cmax of 181 μU/ml. In addition, the “glucose reduction, in words” value in the series with pancreatectomized dogs (oral, formulated in microemulsion, pancreatectomized dogs) was “good glucose reduction”. This substance also gave a Dmax in the series on pancreatectomized dogs (oral, dose 2 mg/kg) of 62%.

As for “Insulin PEG3 Methyl Ether: insulin mono-conjugated with methyl triethylene glycol”, the “in vivo biological activity (potency assay), in words” value in the series with male CF-1 mice [2] (mouse blood glucose assay, Table 2) is reported as “best result”. In addition, the Potency with male CF-1 mice [2] was 43.6 IU/mg.

With “Insulin PEG9 Stearate: insulin mono-conjugated with hydrolyzable PEG9 stearate ester oligomer”, the Potency with male CF-1 mice [2] was 15.3 IU/mg.

For “Insulin PEG9 Oleate: insulin mono-conjugated with hydrolyzable PEG9 oleate ester oligomer”, the Potency with male CF-1 mice [2] is on record as 19.0 IU/mg.

For the substance “Insulin PEG10 Oleyl Ether: nonhydrolyzable insulin mono-conjugate with PEG10 oleyl ether oligomer”, in the series with male CF-1 mice [2], the Potency was 0.0 IU/mg.
